Reference: patent EP4585618A1 (Jiangsu Hengrui Pharmaceuticals Co., Ltd., dated 2025)

Legend:
[1] = target: T1, His-tagged ILT4 protein extracellular domain: ILT4-His (human, UniProt Q8N423 22-460); assay: ELISA, coated ILT4-His 1 µg/mL; Assay 3
T1 construct: Expressed in 293 cells; also called human ILT4-His protein

[2] = target: T2, LILRA5-His (Acro, LI5-H82E1) (human, UniProt A6NI73 42-268); assay: ELISA, coated protein 1 µg/mL
T2 construct: Bought protein. 'Human' stands at the head of the list of coated proteins; not shown: His tag

[3] = target: T3, LILRA6-His (Acro, LI6-H82E2) (human, UniProt Q6PI73 24-447); assay: ELISA, coated protein 1 µg/mL
T3 construct: Bought protein. 'Human' stands at the head of the list of coated proteins; not shown: His tag

[4] = target: T4, His-tagged ILT2 protein extracellular domain: ILT2-His (human, UniProt Q8NHL6 24-461); assay: ELISA, coated protein 1 µg/mL
T4 construct: The entry is the whole construct, with the His tag; also called human ILT2 protein

[5] = target: T5, His-tagged ILT3 protein extracellular domain: ILT3-His (human, UniProt Q8NHJ6 22-259); assay: ELISA, coated protein 1 µg/mL
T5 construct: The entry is the whole construct, with the His tag

[6] = target: T6, LILRB5-His (Acro, CDC-H5220) (human, UniProt O75023 24-458, limits assumed); assay: ELISA, coated protein 1 µg/mL
T6 construct: Bought protein. 'Human' stands at the head of the list of coated proteins; not shown: His tag

[7] = target: T7, LILRA1-His (Acro, LI1-H82E8) (human, UniProt O75019 17-461); assay: ELISA, coated protein 1 µg/mL
T7 construct: Bought protein. 'Human' stands at the head of the list of coated proteins; not shown: His tag

[8] = target: T8, LILRA2-His (Acro, LI2-H82E9) (human, UniProt Q8N149 24-449); assay: ELISA, coated protein 1 µg/mL
T8 construct: Bought protein. 'Human' stands at the head of the list of coated proteins; not shown: His tag

[9] = target: T9, LILRA3-His (Acro, LI3-H82E0) (human, UniProt Q8N6C8 24-439); assay: ELISA, coated protein 1 µg/mL
T9 construct: Bought protein. 'Human' stands at the head of the list of coated proteins; not shown: His tag

[10] = target: T10, LILRA4-His (SinoBiological, 16058-H08H) (human, UniProt P59901 24-446); assay: ELISA, coated protein 1 µg/mL
T10 construct: Bought protein. 'Human' stands at the head of the list of coated proteins; not shown: His tag

[11] = target: T1, His-tagged ILT4 protein extracellular …; assay: ELISA, coated protein 1 µg/mL, antibody 10 µg/mL
[12] = target: T2, LILRA5-His (Acro, LI5-H82E1); assay: ELISA, coated protein 1 µg/mL, antibody 10 µg/mL
[13] = target: T3, LILRA6-His (Acro, LI6-H82E2); assay: ELISA, coated protein 1 µg/mL, antibody 10 µg/mL
[14] = target: T4, His-tagged ILT2 protein extracellular …; assay: ELISA, coated protein 1 µg/mL, antibody 10 µg/mL
[15] = target: T5, His-tagged ILT3 protein extracellular …; assay: ELISA, coated protein 1 µg/mL, antibody 10 µg/mL
[16] = target: T6, LILRB5-His (Acro, CDC-H5220); assay: ELISA, coated protein 1 µg/mL, antibody 10 µg/mL
[17] = target: T7, LILRA1-His (Acro, LI1-H82E8); assay: ELISA, coated protein 1 µg/mL, antibody 10 µg/mL
[18] = target: T8, LILRA2-His (Acro, LI2-H82E9); assay: ELISA, coated protein 1 µg/mL, antibody 10 µg/mL
[19] = target: T9, LILRA3-His (Acro, LI3-H82E0); assay: ELISA, coated protein 1 µg/mL, antibody 10 µg/mL
[20] = target: T10, LILRA4-His (SinoBiological, 16058-H08H); assay: ELISA, coated protein 1 µg/mL, antibody 10 µg/mL
[21] = target: T1, His-tagged ILT4 protein extracellular …; assay: SPR (Biacore), antibody captured on Protein A chip, ILT4-His as analyte, 1:1 model
[22] = target: T11, full-length human ILT4 protein overexpressed on cells (human, UniProt Q8N423 22-597); assay: flow cytometry competition on CHO-S/ILT4 cells; competitor CF647-labelled HLA-G tetramer; Assay 2
T11 construct: also called CHO-S/ILT4; ILT4 stably transfected cell strain

[23] = target: T11, full-length human ILT4 protein …; assay: flow cytometry competition on CHO-S/ILT4 cells; competitor CF647-labelled HLA-G tetramer; Assay 3
[24] = target: T1, His-tagged ILT4 protein extracellular …; assay: ELISA, coated ILT4-His 1 µg/mL; Assay 1
[25] = target: T11, full-length human ILT4 protein …; assay: flow cytometry competition on CHO-S/ILT4 cells; competitor CF647-labelled HLA-G tetramer; Assay 4

T10 sequence (P59901 24-446 limits assumed): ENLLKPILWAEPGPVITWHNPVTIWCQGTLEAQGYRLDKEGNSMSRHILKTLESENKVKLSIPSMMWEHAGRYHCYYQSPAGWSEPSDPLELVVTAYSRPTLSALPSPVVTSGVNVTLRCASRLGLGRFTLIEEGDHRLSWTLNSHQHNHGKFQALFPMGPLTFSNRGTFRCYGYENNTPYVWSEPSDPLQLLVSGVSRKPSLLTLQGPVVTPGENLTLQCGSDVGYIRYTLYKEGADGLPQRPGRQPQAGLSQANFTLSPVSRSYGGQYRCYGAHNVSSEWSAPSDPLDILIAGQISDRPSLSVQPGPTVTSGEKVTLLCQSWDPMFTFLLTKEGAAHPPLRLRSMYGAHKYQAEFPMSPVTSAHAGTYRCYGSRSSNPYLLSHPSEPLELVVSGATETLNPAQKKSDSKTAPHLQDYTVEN
T6 sequence (O75023 24-458 limits assumed): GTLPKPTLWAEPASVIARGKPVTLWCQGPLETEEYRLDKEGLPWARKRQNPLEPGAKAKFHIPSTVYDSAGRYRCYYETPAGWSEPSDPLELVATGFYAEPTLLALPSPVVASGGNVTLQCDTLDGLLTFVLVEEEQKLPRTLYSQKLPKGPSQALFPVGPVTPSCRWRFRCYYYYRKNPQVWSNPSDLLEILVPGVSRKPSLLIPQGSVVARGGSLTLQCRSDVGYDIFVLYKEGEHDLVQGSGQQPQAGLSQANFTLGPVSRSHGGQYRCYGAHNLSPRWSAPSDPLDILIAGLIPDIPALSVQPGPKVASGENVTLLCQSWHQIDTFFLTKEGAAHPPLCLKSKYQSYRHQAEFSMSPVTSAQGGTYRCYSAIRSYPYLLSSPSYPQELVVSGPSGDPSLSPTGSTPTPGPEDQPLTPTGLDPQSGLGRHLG
T1 sequence (Q8N423 other isoform, or with tags, fused parts or gaps limits assumed): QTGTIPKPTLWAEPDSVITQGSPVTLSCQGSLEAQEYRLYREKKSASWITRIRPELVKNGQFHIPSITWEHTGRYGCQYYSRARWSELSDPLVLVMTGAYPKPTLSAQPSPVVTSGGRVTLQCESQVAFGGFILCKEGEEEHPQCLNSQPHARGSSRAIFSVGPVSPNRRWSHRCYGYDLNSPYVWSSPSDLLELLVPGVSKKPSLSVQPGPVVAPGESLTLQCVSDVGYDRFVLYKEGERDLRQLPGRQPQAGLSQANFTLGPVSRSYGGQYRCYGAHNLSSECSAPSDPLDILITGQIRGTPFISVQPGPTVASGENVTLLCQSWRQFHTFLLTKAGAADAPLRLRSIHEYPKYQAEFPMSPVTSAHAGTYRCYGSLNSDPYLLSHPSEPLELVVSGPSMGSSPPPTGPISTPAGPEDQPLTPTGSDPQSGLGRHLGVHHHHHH
T3 sequence (Q6PI73 24-447 limits assumed): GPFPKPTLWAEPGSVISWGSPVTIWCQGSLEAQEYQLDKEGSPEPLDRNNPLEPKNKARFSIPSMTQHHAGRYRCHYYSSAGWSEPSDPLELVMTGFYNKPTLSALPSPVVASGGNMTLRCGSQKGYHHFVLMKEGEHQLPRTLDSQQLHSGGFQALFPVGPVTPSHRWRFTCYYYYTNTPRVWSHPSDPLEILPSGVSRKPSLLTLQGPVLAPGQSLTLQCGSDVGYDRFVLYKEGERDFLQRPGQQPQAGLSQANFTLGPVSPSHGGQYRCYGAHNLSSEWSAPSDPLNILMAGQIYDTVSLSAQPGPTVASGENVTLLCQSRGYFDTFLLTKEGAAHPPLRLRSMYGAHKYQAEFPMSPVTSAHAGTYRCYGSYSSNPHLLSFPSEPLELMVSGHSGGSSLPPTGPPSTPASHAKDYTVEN
T4 sequence (Q8NHL6 other isoform, or with tags, fused parts or gaps): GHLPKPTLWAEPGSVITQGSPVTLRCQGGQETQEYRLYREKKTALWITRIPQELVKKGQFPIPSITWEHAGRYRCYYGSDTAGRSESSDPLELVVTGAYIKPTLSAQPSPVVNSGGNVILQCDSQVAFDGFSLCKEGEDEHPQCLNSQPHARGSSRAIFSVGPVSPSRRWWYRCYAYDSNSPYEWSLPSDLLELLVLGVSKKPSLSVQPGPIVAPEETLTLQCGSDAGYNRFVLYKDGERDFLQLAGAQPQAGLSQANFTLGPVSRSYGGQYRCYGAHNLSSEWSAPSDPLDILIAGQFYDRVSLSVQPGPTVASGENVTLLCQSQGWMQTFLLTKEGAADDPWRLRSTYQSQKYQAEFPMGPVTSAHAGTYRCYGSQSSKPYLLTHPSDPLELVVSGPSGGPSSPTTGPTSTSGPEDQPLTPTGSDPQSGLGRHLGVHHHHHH
T11 sequence (Q8N423 other isoform, or with tags, fused parts or gaps limits assumed): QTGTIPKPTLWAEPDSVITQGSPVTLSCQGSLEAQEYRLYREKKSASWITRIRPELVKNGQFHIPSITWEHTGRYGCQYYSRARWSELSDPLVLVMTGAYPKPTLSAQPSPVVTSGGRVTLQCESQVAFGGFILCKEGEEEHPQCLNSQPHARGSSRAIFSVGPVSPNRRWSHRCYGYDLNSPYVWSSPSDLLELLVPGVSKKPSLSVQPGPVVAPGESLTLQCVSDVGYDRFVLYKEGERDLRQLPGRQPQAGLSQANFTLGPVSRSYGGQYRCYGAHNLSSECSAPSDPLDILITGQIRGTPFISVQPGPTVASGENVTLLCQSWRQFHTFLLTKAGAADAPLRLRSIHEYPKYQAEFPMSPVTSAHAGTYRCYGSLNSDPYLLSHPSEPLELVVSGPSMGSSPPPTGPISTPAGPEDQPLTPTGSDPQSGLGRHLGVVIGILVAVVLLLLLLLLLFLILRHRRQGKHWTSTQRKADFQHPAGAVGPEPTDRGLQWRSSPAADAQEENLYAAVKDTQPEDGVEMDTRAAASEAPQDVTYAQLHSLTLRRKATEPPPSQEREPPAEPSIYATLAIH
T9 sequence (Q8N6C8 24-439 limits assumed): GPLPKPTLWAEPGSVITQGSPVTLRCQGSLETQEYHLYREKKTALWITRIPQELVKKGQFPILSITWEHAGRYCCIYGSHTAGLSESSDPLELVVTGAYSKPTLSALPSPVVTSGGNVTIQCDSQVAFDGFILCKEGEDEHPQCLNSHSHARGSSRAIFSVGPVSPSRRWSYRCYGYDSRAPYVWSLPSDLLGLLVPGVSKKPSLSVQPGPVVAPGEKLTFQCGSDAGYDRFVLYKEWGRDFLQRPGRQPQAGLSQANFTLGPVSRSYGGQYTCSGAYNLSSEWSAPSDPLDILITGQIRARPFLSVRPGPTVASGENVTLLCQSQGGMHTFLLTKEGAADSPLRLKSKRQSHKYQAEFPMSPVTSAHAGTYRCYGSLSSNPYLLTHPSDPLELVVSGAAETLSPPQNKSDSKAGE
T2 sequence (A6NI73 42-268 limits assumed): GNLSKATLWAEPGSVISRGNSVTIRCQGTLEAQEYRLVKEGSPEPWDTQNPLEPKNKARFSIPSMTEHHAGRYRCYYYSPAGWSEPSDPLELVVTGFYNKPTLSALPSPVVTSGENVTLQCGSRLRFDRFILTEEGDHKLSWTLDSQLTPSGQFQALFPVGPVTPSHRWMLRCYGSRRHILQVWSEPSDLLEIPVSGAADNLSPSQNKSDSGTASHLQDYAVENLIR
T7 sequence (O75019 17-461 limits assumed): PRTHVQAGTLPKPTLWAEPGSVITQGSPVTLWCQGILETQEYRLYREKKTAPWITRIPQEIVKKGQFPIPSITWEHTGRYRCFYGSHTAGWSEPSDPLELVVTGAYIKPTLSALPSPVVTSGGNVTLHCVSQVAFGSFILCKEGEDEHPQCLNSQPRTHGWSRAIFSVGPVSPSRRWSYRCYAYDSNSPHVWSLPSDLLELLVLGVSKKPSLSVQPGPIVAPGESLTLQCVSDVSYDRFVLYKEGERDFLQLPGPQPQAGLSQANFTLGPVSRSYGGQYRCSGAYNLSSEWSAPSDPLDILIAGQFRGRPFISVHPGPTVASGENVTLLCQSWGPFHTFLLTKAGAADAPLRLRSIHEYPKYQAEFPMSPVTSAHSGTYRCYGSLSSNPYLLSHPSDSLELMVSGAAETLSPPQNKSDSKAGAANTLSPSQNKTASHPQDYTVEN
T8 sequence (Q8N149 24-449 limits assumed): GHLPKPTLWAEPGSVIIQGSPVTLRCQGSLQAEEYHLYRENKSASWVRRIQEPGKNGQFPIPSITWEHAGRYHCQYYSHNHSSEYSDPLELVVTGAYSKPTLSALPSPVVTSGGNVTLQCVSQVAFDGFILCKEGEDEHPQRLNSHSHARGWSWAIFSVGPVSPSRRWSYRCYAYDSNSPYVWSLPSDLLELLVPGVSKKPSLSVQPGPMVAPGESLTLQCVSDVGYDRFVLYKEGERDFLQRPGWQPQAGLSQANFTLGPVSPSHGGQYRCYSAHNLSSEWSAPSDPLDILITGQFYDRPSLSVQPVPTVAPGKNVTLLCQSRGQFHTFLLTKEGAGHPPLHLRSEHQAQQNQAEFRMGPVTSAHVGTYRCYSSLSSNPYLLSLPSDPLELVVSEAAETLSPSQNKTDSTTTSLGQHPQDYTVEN

binding result [2]	binding result [3]	binding result [4]	binding result [5]	binding result [6]	binding result [7]	binding result [8]	binding result [9]	binding result [10]	absorbance at 450 nm [11] [absorbance at 450 nm]	absorbance at 450 nm [12] [absorbance at 450 nm]	absorbance at 450 nm [13] [absorbance at 450 nm]	absorbance at 450 nm [14] [absorbance at 450 nm]	absorbance at 450 nm [15] [absorbance at 450 nm]	absorbance at 450 nm [16] [absorbance at 450 nm]	absorbance at 450 nm [17] [absorbance at 450 nm]	absorbance at 450 nm [18] [absorbance at 450 nm]	absorbance at 450 nm [19] [absorbance at 450 nm]	absorbance at 450 nm [20] [absorbance at 450 nm]	Kd [21] [nM]	Binder	further results
																				chimeric antibody ChP1-D7 (antibody, human IgG4 S228P, kappa, F234A L235A, V domains shown, Murine variable regions with hIgG4(LALA) and CL constant regions; also called M P1-D7) VH: QIQLVQSGPDLKKPGETVKISCKASGYTFTTYGMNWVKQAPGKALKWMGWINTYSGVPTYADDFKGRFAFSLETSATTAYLQINNLKNEDTATYFCARRTDYDGYVMDCWGQGTSVTVSS VL: DIVMSQSPSSLAVSIGEKVTMSCKSSQSLFYSGNQKNYLAWYLQKPGQSPKLLLYWASTRESGVPDRFTGSGSGTDFTLTISSVMAEDLAVYYCQQYFSYPPTFGGGTKLEIKR	EC50 [1]: 0.0292 µg/mL
no binding (tested: 10 µg/mL)	no binding (tested: 10 µg/mL)	no binding (tested: 10 µg/mL)	no binding (tested: 10 µg/mL)	no binding (tested: 10 µg/mL)	no binding (tested: 10 µg/mL)	no binding (tested: 10 µg/mL)	no binding (tested: 10 µg/mL)	no binding (tested: 10 µg/mL)	1.77	0.0441	0.0449	0.0541	0.0564	0.0533	0.0457	0.0759	0.0461	0.0674	0.109	humanized antibody huP2-G9 (antibody, human IgG1, kappa, L234A L235A, V domains shown, Full chains; also called P2-G9H1L2) VH: EVQLQESGPGLVKPSQTLSLTCTVSGSSITSGYYWNWIRQHPGKGLEWIGYLSYDGSNNYNPSLKNLVTISRDTSKNQFSLKLSSVTAADTAVYYCAREGAHYSGTLSWFAYWGQGTLVTVSS VL: DIQMTQSPSSLSASVGDRVTITCRASENIYSNLAWYQQKPGKSPKLLVYAATNLADGVPSRFSGSGSGTDYTLTISSLQPEDFATYYCQHFWDTPYTFGGGTKVEIKR	koff [21]: 0.000109 s⁻¹; kon [21]: 999000 M⁻¹ s⁻¹; IC50 [22]: 0.085 µg/mL
no binding (tested: 10 µg/mL)	no binding (tested: 10 µg/mL)	no binding (tested: 10 µg/mL)	no binding (tested: 10 µg/mL)	no binding (tested: 10 µg/mL)	no binding (tested: 10 µg/mL)	no binding (tested: 10 µg/mL)	no binding (tested: 10 µg/mL)	no binding (tested: 10 µg/mL)	2.69	0.0598	0.0606	0.0621	0.149	0.0563	0.0535	0.0565	0.0613	0.0605	0.0543	humanized antibody huP2-C6 (antibody, human IgG1, kappa, L234A L235A, V domains shown, Full chains; also called P2-C6H7L1) VH: EVQLVQSGAEVKKPGASVKVSCKASGYTFTDYYIHWVRQAPGQGLEWMGYIYPDTGYSGYNQKFKGRVTMTVDKSTSTAYMELRSLRSDDTAVYYCTRRGDYSGVHFDYWGQGTTVTVSS VL: DIVLTQSPDSLAVSLGERATINCRASESVNNYGVGFLHWYQQKPGQPPKLLIYRASTLESGIPDRFSGSGSGTDFTLTISSLQAEDVAVYYCQHSYKDPPWTFGGGTKVEIKR	koff [21]: 6.58e-05 s⁻¹; kon [21]: 1.21e+06 M⁻¹ s⁻¹; IC50 [23]: 0.072 µg/mL
																				chimeric antibody ChP1-C4 (antibody, human IgG4 S228P, kappa, F234A L235A, V domains shown, Murine variable regions with hIgG4(LALA) and CL constant regions; also called M P1-C4) VH: QVQLKQSGAELVRPGASVKLSCKASGYSFTDYYINWVKQRPGQGLEWIARIYPGNDNTYYNEKFKDKATLTADSSSSTAYMQLSSLTSEDSAVYFCTRSQDGYYEENAMDYWGQGTSVTVSS VL: DIQMTQSPASLSVSVGETVTITCRASENIYSNLAWYQQRQGKSPQLLVYAATNLADGVPFRFSGSGSGTQYSLKINSLQSEDFGSYYCQQFWGSPHTFGGGTKLEIKR	EC50 [24]: 0.0643 µg/mL
no binding (tested: 10 µg/mL)	no binding (tested: 10 µg/mL)	no binding (tested: 10 µg/mL)	no binding (tested: 10 µg/mL)	no binding (tested: 10 µg/mL)	no binding (tested: 10 µg/mL)	no binding (tested: 10 µg/mL)	no binding (tested: 10 µg/mL)	no binding (tested: 10 µg/mL)	1.87	0.0459	0.0453	0.0517	0.0671	0.0663	0.0469	0.0448	0.0468	0.0543	0.0433	fully human-derived antibody P2m (antibody, human IgG1, kappa, L234A L235A, V domains shown, Full chains) VH: QVQLVQSGAEVKKPGSSVKVSCKASGYTFTSYDISWVRQAPGQGLEWMGGIIPIFGTANYAQKFQGRVTITADESTSTAYMELSSLRSEDTAVYYCTAGIFLATAYWGQGTLVTVSS VL: DIQMTQSPSSMSASVGDRVTISCQASQDIQNYLNWYQQRPGQAPKLLIYDASTLETGVPSRFSGSGSGTYFTLTISSLQPEDVATYYCQQYENVPITFGQGTRLEIKR	koff [21]: 8.78e-05 s⁻¹; kon [21]: 2.03e+06 M⁻¹ s⁻¹; IC50 [25]: 0.033 µg/mL
no binding (tested: 10 µg/mL)	no binding (tested: 10 µg/mL)	no binding (tested: 10 µg/mL)	no binding (tested: 10 µg/mL)	no binding (tested: 10 µg/mL)	no binding (tested: 10 µg/mL)	no binding (tested: 10 µg/mL)	no binding (tested: 10 µg/mL)	no binding (tested: 10 µg/mL)	0.954	0.0467	0.0461	0.0569	0.063	0.0489	0.0483	0.0516	0.0467	0.0504	0.839	humanized antibody huP2-E8 (antibody, human IgG4 S228P, kappa, F234A L235A, V domains shown, Full chains; also called P2-E8H4L1) VH: EVQLVESGGGLVKPGGSLRLSCAASGFTFSDYGIHWVRQAPGKGLEWVAYISSGSSIHNYADTVKGRFTISRDNAKNSLYLQMNSLRAEDTAVYYCARGPNYYGSSYLLVYWGQGTLVTVSS VL: DIQMTQSPSSLSASVGDRVTITCKASQDVNIAVAWYQQKPGKAPKLLIYSASYRYTGVPSRFSGSGSGTDFTFTISSLQPEDIATYYCQQHYNIPWTFGGGTKVEIKR	koff [21]: 0.000186 s⁻¹; kon [21]: 222000 M⁻¹ s⁻¹
